# Experimental data published in the supplement of paper PMC10567573.
# B1: ELF3 (parent)
# chain: RLVYKFGKNSSGWKEEEVLQSRN
# B2: TRIM55 (parent)
# chain: YLPTRGGTTMASGGRFRCPSCRHE
# Variants of: B1
# Assay: protein stability index of a GFP-peptide fusion (GPS, HEK-293T) (PSI 1-6); higher = more stable
# Conditions: c terminus: native
# 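Further: lentivirally expressed fusions sorted by FACS into six bins by GFP to DsRed ratio, PSI derived from sequencing read proportions per bin multiplied by bin number.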
row,Variant,protein stability index
1,RLVYKFGKNSSGWKEEEVLQSKN [R22K],3.75
2,RLVYKFGKNSSGWKEEEVLQSFN [R22F],3.01
3,RLVYKFGKNSSGWKEEEVLQSQN [R22Q],3.02
4,RLVYKFGKNSSGWKEEEVLQSAN [R22A],2.85
5,RLVYKFGKNSSGWKEEEVLQSSN [R22S],2.92
6,RLVYKFGKNSSGWKEESVLQSRN [E17S],1.13
7,RLVYKFGKNSSGWKEETVLQSRN [E17T],1.51
8,RLVYKFGKNSSGWKEEFVLQSRN [E17F],1.75
9,RLVYKFGKNSSGWKEEYVLQSRN [E17Y],2.98
10,RLVYKFGKNSSGWKEEAVLQSRN [E17A],2.06
11,RLVYKFGKNSSGWKEEGVLQSRN [E17G],1.93
12,RLVYKFGKNSSGWKEEMVLQSRN [E17M],2.27
13,RLVYKFGKNSSGWKEEPVLQSRN [E17P],2.22
14,RLVYKFGKNSSGWKEEVVLQSRN [E17V],1.98
15,RLVYKFGKNSSGWKEEHVLQSRN [E17H],1.11
16,RLVYKFGKNSSGWKEENVLQSRN [E17N],1.6
17,RLVYKFGKNSSGWKEEQVLQSRN [E17Q],2.09
18,RLVYKFGKNSSGWKEEDVLQSRN [E17D],1.75
19,RLVYKFGKNSSGWKEECVLQSRN [E17C],2.62
20,RLVYKFGKNSSGWKEEKVLQSRN [E17K],1.3
21,RLVYKFGKNSSGWKEEIVLQSRN [E17I],2.02
22,RLVYKFGKNSSGWKEEEVMQSRN [L19M],2.43

row,Variant,protein stability index
1,RLVYKFGKNSSGWKEEEVYQSRN [L19Y],1.52
2,RLVYKFGKNSSGWKEEEVDQSRN [L19D],4.52
3,RLVYKFGKNSSGWKEEEVNQSRN [L19N],3.65
4,RLVYKFGKNSSGWKEEEVCQSRN [L19C],2.33
5,RLVYKFGKNSSGWKEEEVAQSRN [L19A],3.3
6,RLVYKFGKNSSGWKEEEVHQSRN [L19H],2.98
7,RLVYKFGKNSSGWKEEEVKQSRN [L19K],3.02
8,RLVYKFGKNSSGWKEEEVFQSRN [L19F],1.49
9,RLVYKFGKNSSGWKEEEVVQSRN [L19V],2.55
10,RLVYKFGKNSSGWKEEEVGQSRN [L19G],3.19
11,RLVYKFGKNSSGWKEEEVPQSRN [L19P],3.12
12,RLVYKFGKNSSGWKEEEVRQSRN [L19R],2.51
13,RLVYKFGKNSSGWKEEEVIQSRN [L19I],2.67
14,RLVYKFGKNSSGWKEEEVEQSRN [L19E],4.05
15,RLVYKFGKNSSGWKEEEVTQSRN [L19T],3.84
16,RLVYKFGKNSSGWKEEEVQQSRN [L19Q],3.85
17,RLVYKFGKNSSGWKEEEVLQSRY [N23Y],2.31
18,RLVYKFGKNSSGWKEEEVLQSRL [N23L],3.28
19,RLVYKFGKNSSGWKEEEVLQSRF [N23F],2.86
20,RLVYKFGKNSSGWKEEEVLQSRW [N23W],2.13
21,RLVYKFGKNSSGWKEEEVLQSRE [N23E],3.68
22,RLVYKFGKNSSGWKEEEVLQSRI [N23I],1.8

row,Variant,protein stability index
1,RLVYKFGKNSSGWKEEEVLQSRV [N23V],2.62
2,RLVYKFGKNSSGWKEEEVLQSRG [N23G],2
3,RLVYKFGKNSSGWKEEEVLQSRS [N23S],2.51
4,RLVYKFGKNSSGWKEEEVLQSRM [N23M],1.81
5,RLVYKFGKNSSGWKEEEVLQSRD [N23D],2.7
6,RLVYKFGKNSSGWKEEEVLQSRT [N23T],2.37
7,RLVYKFGKNSSGWKEEEVLQSRQ [N23Q],1.87
8,RLVYKFGKNSSGWKEEEVLQSRA [N23A],2.28
9,RLVYKFGKNSSGWKEEEVLQSRP [N23P],3.22
10,RLVYKFGKNSSGWKEEEVLQSRC [N23C],1.7
11,RLVYKFGKNSSGWKEEEVLQSRK [N23K],3.52
12,RLVYKFGKNSSGWREEEVLQSRN [K14R],2.43
13,RLVYKFGKNSSGWSEEEVLQSRN [K14S],2.89
14,RLVYKFGKNSSGWYEEEVLQSRN [K14Y],2.28
15,RLVYKFGKNSSGWHEEEVLQSRN [K14H],1.41
16,RLVYKFGKNSSGWCEEEVLQSRN [K14C],2.12
17,RLVYKFGKNSSGWLEEEVLQSRN [K14L],2.7
18,RLVYKFGKNSSGWFEEEVLQSRN [K14F],2.49
19,RLVYKFGKNSSGWIEEEVLQSRN [K14I],2.25
20,RLVYKFGKNSSGWMEEEVLQSRN [K14M],2.88
21,RLVYKFGKNSSGWPEEEVLQSRN [K14P],2.58
22,RLVYKFGKNSSGWEEEEVLQSRN [K14E],3.31

row,Variant,protein stability index
1,RLVYKFGKNSSGWDEEEVLQSRN [K14D],3.25
2,RLVYKFGKNSSGWNEEEVLQSRN [K14N],1.92
3,RLVYKFGKNSSGWQEEEVLQSRN [K14Q],3
4,RLVYKFGKNSSGWTEEEVLQSRN [K14T],2.32
5,RLVYKFGKNSSGWAEEEVLQSRN [K14A],2.02
6,RLVYKFGKNSSGWVEEEVLQSRN [K14V],2.25
7,RLVYKFGKNSSGWKEEEVLQTRN [S21T],2.1
8,RLVYKFGKNSSGWKEEEVLQCRN [S21C],2.39
9,RLVYKFGKNSSGWKEEEVLQPRN [S21P],3.39
10,RLVYKFGKNSSGWKEEEVLQLRN [S21L],3.31
11,RLVYKFGKNSSGWKEEEVLQDRN [S21D],3.56
12,RLVYKFGKNSSGWKEEEVLQKRN [S21K],2.95
13,RLVYKFGKNSSGWKEEEVLQNRN [S21N],2.49
14,RLVYKFGKNSSGWKEEEVLQIRN [S21I],2.41
15,RLVYKFGKNSSGWKEEEVLQYRN [S21Y],2.72
16,RLVYKFGKNSSGWKEEEVLQARN [S21A],2.12
17,RLVYKFGKNSSGWKEEEVLQGRN [S21G],2.26
18,RLVYKFGKNSSGWKEEEVLQERN [S21E],3.19
19,RLVYKFGKNSSGWKEEEVLQMRN [S21M],2.31
20,RLVYKFGKNSSGWKEEEVLQQRN [S21Q],3.82
21,RLVYKFGKNSSGWKEEEVLQFRN [S21F],1.94
22,RLVYKFGKNSSGWKEEEVLQVRN [S21V],1.82

# Variants of: B2
# Assay: as above
# Conditions: c terminus: a fixed tail appended
row,Variant,protein stability index
1,ILPTRGGTTMASGGRFRCPSCRHE [Y1I],2.52
2,HLPTRGGTTMASGGRFRCPSCRHE [Y1H],2.79
3,ALPTRGGTTMASGGRFRCPSCRHE [Y1A],2.59
4,CLPTRGGTTMASGGRFRCPSCRHE [Y1C],2.14
5,LLPTRGGTTMASGGRFRCPSCRHE [Y1L],2.06
6,KLPTRGGTTMASGGRFRCPSCRHE [Y1K],1.46
7,DLPTRGGTTMASGGRFRCPSCRHE [Y1D],2.15
8,FLPTRGGTTMASGGRFRCPSCRHE [Y1F],2.51
9,GLPTRGGTTMASGGRFRCPSCRHE [Y1G],3.18
